Measured values reported in US20210269520A1 (Eli Lilly, published 2021).

Key:
[1] = target: T1, human CD19, membrane-bound, on cells (human, UniProt P15391 20-556); test: cell-based or functional assay
T1 sequence: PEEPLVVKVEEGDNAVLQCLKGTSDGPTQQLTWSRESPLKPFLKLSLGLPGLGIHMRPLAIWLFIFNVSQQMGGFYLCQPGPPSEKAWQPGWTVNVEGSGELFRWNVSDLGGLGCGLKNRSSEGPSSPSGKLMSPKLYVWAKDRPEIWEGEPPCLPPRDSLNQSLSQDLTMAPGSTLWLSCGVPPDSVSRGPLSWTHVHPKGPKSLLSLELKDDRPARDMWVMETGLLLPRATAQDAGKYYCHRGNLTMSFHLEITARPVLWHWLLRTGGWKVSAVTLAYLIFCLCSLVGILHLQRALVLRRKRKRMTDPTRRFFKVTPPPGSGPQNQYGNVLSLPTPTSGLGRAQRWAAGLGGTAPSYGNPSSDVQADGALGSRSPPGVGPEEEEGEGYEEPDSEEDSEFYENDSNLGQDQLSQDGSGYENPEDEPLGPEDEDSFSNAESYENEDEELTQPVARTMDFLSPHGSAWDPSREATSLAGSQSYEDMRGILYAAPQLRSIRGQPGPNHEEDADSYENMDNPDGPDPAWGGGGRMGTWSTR

[2] = target: T1, human CD19, membrane-bound, on cells; test: cell-based or functional assay; remark: listed apart in the source
[3] = target: T1, human CD19, membrane-bound, on cells; test: MSD-SET solution equilibrium titration at 37° C., fixed CHO cells expressing human CD19; geometric mean of 3 replicates
Experimental: (§1) Following incubation, cells are pelleted by centrifugation. One hundred microliters of the clarified supernatant from the plate is transferred to the prepared MSD plate and incubated on a plate shaker at room temperature for 60 minutes. Following incubation, the plate is washed 3× with TBST, then 100 μL of 1 μg/mL biotinylated goat anti-human IgG primary antibody (Southern Biotech, Catalog 2010-08) in 1% Blocker A is added to all wells. This is incubated on a plate shaker at room temperature for 60 minutes. The plate was washed 3× with TBST, then 100 μL of 1 μg/mL SULFO-TAG streptavidin (Meso Scale Discovery, P/N R32AD-1) in 1% Blocker A was added to all wells. This was incubated on a plate shaker at room temperature for 60 minutes. The plate is washed 3× with TBST, then 1× Read Buffer T (Meso Scale Discovery, P/NR92TC-1) is added immediately before reading the plate. Dissociation constant (KD) and a least common multiplier (LCM) to account for unknown antigen concentrations on cells are globally fit from the MSD-SET data to an equilibrium binding equation (see Darling and Brault, 2005, Kinetic Exclusion Assay Technology: Characterization of Molecular Interactions. Assay and Drug Development Technologies 2: 647-657) using non-linear regression in GraphPad Prism.

[4] = target: T2, cynomolgus monkey CD19, membrane-bound, stably expressed on CHO cells (cynomolgus monkey, UniProt A0A2K5W8L9 20-557); test: MSD-SET solution equilibrium titration at 37° C., fixed CHO cells expressing cynomolgus monkey CD19; geometric mean of 3 replicates
T2 construct: whole, on cells; The cells were fixed with paraformaldehyde for MSD-SET; also called cynomolgus monkey CD19 expressing CHO cells
T2 sequence: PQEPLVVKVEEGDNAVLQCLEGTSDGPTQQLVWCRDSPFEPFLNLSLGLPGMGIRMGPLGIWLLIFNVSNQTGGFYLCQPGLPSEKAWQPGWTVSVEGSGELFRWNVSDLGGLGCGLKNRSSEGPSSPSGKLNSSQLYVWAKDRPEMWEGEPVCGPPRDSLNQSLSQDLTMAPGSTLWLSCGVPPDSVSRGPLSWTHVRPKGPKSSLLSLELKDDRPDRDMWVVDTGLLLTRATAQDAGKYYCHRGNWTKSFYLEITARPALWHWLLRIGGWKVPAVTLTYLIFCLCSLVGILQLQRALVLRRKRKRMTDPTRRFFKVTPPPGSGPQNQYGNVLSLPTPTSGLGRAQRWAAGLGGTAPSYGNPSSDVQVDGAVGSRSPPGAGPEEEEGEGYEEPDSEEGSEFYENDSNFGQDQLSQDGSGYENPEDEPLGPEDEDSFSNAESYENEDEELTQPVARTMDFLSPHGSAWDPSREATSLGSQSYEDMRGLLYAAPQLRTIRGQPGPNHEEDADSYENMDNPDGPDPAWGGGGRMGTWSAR
Experimental: as §1

[5] = target: T3, human CD19 extracellular domain protein (human, UniProt P15391 20-291, biotinylated in the FIG. 2 ELISA and in the Fab screening (sites not given)); test: sandwich ELISA: antibody captured on goat anti-human kappa, biotinylated human CD19 ECD titrated (20 ug/mL to 9 ng/mL), about 16 h wash at 37 C, neutravidin-alkaline phosphatase, absorbance at 560 nm
T3 construct: also called CD19 extracellular domain (ECD) protein; biotinylated human CD19 ECD antigen
T3 sequence: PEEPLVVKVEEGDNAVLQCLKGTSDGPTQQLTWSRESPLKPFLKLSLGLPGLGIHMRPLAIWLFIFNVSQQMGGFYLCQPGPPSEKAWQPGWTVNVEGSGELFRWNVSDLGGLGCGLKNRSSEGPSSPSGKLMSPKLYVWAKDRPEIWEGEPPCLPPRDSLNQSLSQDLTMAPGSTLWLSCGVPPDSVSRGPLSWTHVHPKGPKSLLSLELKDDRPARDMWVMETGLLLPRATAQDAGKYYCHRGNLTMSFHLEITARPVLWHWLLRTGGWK
Experimental: The ELISA assay is performed as follows. A 96 well microtiter plate is coated overnight at 4° C. using 50 μL/well of goat anti-human kappa polyclonal antibody diluted to 5 μg/mL in phosphate buffered saline (PBS). Following overnight incubation, the plate is aspirated and blocked using 200 μL of casein buffer for 1 hour at room temperature. The plate is washed three times using PBST (PBS with 0.1% Tween). The anti-human CD19 antibodies are diluted to 5 μg/mL in PBS casein and 50 μL added to each column of the anti-human kappa coated casein blocked plate for 1 hour at 37° C. The plate is washed three times using PBST. Biotinylated human CD19 extracellular domain protein is serially diluted from 20 μg/mL to 9 ng/mL and 50 μL added to the plates and incubated for 1 hour at 37° C. The plate is washed three times using PBST and then transferred to a beaker containing 1 liter of PBST and incubated with stirring overnight (approx. 16 hr) at 37° C. The wash buffer is aspirated and 50 μL of neutravidin alkaline phosphatase-conjugate diluted 1:1000 in casein buffer is added and incubated for 1 hour at 37° C. The plate is washed three times using PBS 0.1% Tween. Fifty μL of AMP-PMP substrate diluted 1:35 in deionized water is added and the absorbance at 560 nm read on a Spectramax plate reader.

[6] = target: T4, mouse CD19 Fc fusion protein (mouse, UniProt P25918 19-287, limits assumed); test: SPR (Biacore T200) at 37° C., CD19-Fc captured on a protein A chip, Fab injected
T4 construct: Bought from R&D Systems; also called recombinant CD19-Fc; not shown: Fc part of a bought fusion protein
T4 sequence (looked up): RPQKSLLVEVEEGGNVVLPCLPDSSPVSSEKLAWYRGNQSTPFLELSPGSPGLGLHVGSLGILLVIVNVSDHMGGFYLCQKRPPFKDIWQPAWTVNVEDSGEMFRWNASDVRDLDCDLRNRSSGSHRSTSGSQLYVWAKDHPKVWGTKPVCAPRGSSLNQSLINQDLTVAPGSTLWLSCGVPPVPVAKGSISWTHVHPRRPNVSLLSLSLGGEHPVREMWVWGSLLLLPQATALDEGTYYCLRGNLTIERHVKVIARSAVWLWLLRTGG
Experimental: (§2) Biacore T200 instrument (GE Healthcare Life Sciences), reagents, and Biacore T200 Evaluation Software Ver 3.1 are used for the surface plasmon resonance analysis of human, mouse and cynomolgus monkey CD19 binding to the Fab fragment of CB3f. Recombinant CD19-Fc proteins are purchased from R&D Systems. A protein A sensor chip (GE protein A chip P/N 2912755) is used. Running buffer is 1×HBS-EP+ (Teknova P/N H8022), and running temperature is 37° C.
(§3) CD19 Fc fusion proteins are diluted to 3 μg/mL in running buffer, and approximately 60 RU each of human, cynomolgus monkey, and mouse proteins are captured in flow cells (Fc) 2, 3 and 4, respectively. CB3f Fab fragment is diluted to 1000 nM in running buffer and then 5-fold serially diluted in running buffer to 1.6 nM for a total of 5 dilutions. Fab or buffer blank is injected at 50 μL/min for 300 seconds followed by a 900 second dissociation phase. Regeneration is performed by injecting 10 mM glycine pH 1.5 for 30 seconds at 50 μL/min over all Fc. Reference-subtracted data is collected as Fc2-Fc1, Fc3-Fc1 and Fc4-Fc1, and then reference-subtracted data is blank subtracted. The on-rate (kₒₙ) and off-rate (koff) are fit using the “1:1 Binding” model. The affinity (KD) is calculated from the binding kinetics according to the relationship: KD=koff/kₒₙ.

[7] = target: T5, human CD19 Fc fusion protein (human, UniProt P15391 20-291); test: SPR (Biacore T200) at 37° C., CD19-Fc captured on a protein A chip, Fab injected, KD = koff/kon
T5 construct: Bought from R&D Systems; also called recombinant CD19-Fc; not shown: Fc part of a bought fusion protein
T5 sequence: T3 sequence
Experimental: as §2, §3

[8] = target: T6, cynomolgus monkey CD19 Fc fusion protein (cynomolgus monkey, UniProt A0A2K5W8L9 20-292); test: as above
T6 construct: Bought from R&D Systems; also called recombinant CD19-Fc; not shown: Fc part of a bought fusion protein
T6 sequence: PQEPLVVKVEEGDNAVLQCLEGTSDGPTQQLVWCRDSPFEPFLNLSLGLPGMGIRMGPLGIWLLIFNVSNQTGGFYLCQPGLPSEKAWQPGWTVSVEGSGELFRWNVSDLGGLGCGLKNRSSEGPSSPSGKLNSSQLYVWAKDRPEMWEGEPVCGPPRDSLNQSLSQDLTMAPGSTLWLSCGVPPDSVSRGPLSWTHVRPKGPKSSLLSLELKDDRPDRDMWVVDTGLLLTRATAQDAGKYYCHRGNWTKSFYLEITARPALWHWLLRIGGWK
Experimental: as §2, §3

[9] = target: T5, human CD19 Fc fusion protein; test: SPR (Biacore T200) at 37° C., CD19-Fc captured on a protein A chip, Fab injected, 1:1 binding model
Experimental: as §2, §3

[10] = target: T6, cynomolgus monkey CD19 Fc fusion protein; test: as above
Experimental: as §2, §3

B1: anti-human CD19 mAb CB3f (IgG4 isotype) (antibody, V domains shown)
VH: QVQLVQSGAEVKKPGSSVKVSCKASGHTISSYAYSWVRQAPGQGLEWMGDIIPAYGSPNYAQKFQGRVTITADESTSTAYMELSSLRSEDTAVYYCAREDFGKNYAMDVWGQGTLVTVSS
VL: EIVLTQSPGTLSLSPGERATLSCRASQHVSSHYLAWYQQKPGQAPRLLIYGASSRATGIPDRFSGSGSGTDFTLTISRLEPEDFAVYYCQHYGQSQFTFGQGTKVEIKR
notes: also called anti-human CD19 mAb1
- IC50, inhibition of primary B cell proliferation ([3H]-thymidine), Average of 12 donors [1]: 7 pM
- IC50, inhibition of primary B cell proliferation ([3H]-thymidine), Donor 1 [1]: 6 pM
- IC50, inhibition of primary B cell proliferation ([3H]-thymidine), Donor 2 [1]: 9 pM
- IC50, inhibition of primary B cell proliferation ([3H]-thymidine), Donor 3 [1]: 3 pM
- IC50, inhibition of primary B cell proliferation ([3H]-thymidine), Donor 4 [1]: 6 pM
- IC50, inhibition of primary B cell proliferation ([3H]-thymidine), Donor 5 [1]: 4 pM
- IC50, inhibition of primary B cell proliferation ([3H]-thymidine), Donor 6 [1]: 3 pM
- IC50, inhibition of primary B cell proliferation ([3H]-thymidine), Donor 7 [1]: 3 pM
- IC50, inhibition of primary B cell proliferation ([3H]-thymidine), Donor 8 [1]: 5 pM
- IC50, inhibition of primary B cell proliferation ([3H]-thymidine), Donor 9 [1]: 5 pM
- IC50, inhibition of primary B cell proliferation ([3H]-thymidine), Donor 10 [1]: 0.028 nM
- IC50, inhibition of primary B cell proliferation ([3H]-thymidine), Donor 11 [1]: 4 pM
- IC50, inhibition of primary B cell proliferation ([3H]-thymidine), Donor 12 [1]: 5 pM
- IC50, inhibition of B cell activation in whole blood (reduction of CD69+ B cells), Average [2]: 8 pM
- IC50, inhibition of B cell activation in whole blood (reduction of CD69+ B cells), Donor 1 [2]: 0.015 nM
- IC50, inhibition of B cell activation in whole blood (reduction of CD69+ B cells), Donor 2 [2]: 0.6 pM
- IC50, inhibition of B cell activation in whole blood (reduction of CD69+ B cells), Donor 3 [2]: 8 pM
- Kd [3]: 3.35 pM
- Kd [4]: 0.0452 nM
- EC50 (read off the curve) [5]: ~0.8 µg/mL

B2: Fab fragment of CB3f (Fab, V domains shown)
VH: B1 VH
VL: EIVLTQSPGTLSLSPGERATLSCRASQHVSSHYLAWYQQKPGQAPRLLIYGASSRATGIPDRFSGSGSGTDFTLTISRLEPEDFAVYYCQHYGQSQFTFGQGTKVEIK
notes: also called CB3f Fab fragment; CB3f Fab
- binding result [6]: no binding (tested: 1 µM)
- Kd [7]: 0.0768 nM
- Kd [8]: 94.5 nM
- koff [9]: 0.000235 s⁻¹
- kon [9]: 3.2e+06 M⁻¹ s⁻¹
- koff [10]: 0.0978 s⁻¹
- kon [10]: 1.04e+06 M⁻¹ s⁻¹
